According to patent US20160244529A1 (ROTTAPHARM BIOTECH S R L, published 2016):

B1: anti-TrkA scFv CRB0089 (scFv)
scFv: QTVVTQEPSVSGAPGQRVTISCTGSSSIIGAGYEVHWYQHLPGTAPKLLIYDSINRPSGVPDRFSGSKSGTSASLAITGLQAEDEADYYCQSSAIFGGGTKLTVLSGGSTSGSGKPGSGEGSSGTQVQLQESGPGLVKPSQTLSLTCAISGDSVSSNSAAWNWIRQSPSRGLEWLGRTFHRSRWYNEYPVSVRSRITINPDTSNNQFTLQLNSVTPDDTAVYYCARAPVAGLTFDIWGQGTMVTVSS
notes: From hSPLINT_09 selection
B2: anti-TrkA scFv CRB0022 (scFv)
scFv: DIVLTQSPALMSASPGEKVTMTCSASSSVSYMYWYQQKPRSSPKPWIYLTSNLASGVPARFSGSGSGTSYSLTISSMEAEDAATYYCQQWSSNPYTFGGRTRLEIKPSGGSTSGSGKPGSGEDSSGAQVQLQQSGAELVKPGASVELSCTASGFNIKDTYMHWVKQRPEQGLEWIGGIDPANGNTIYVPKFQGKATITADTSSNTAYLQLSSLTSEDTAVYYCARGGYDFDYAMDYWGQGTSVTVSS
notes: From mSPLINT selection
B3: anti-TrkA scFv CRB0084 (scFv)
scFv: QPVLTQPPSVSVAPRQTATITCGGNYIGSKSVHWYQQKPGQDPVLVVNDDSDRPSGIPERFSGSNSANTATLTISGVEAGDEADYYCQVWDSSTEPVVFGGGTKLTVLSGGSTSGSGKPGSGEGSSGTQVQLQQWGAGLLRPSETLSLTCTVSGGSFSDSYWTWIRQSPGKGLEWIGENNHRGSTNYSPTLRSRLSISIDSSKNQFSLKLSSVTAADTAVYYCARVPYRLRSRIFDVWGQGTMVTVSS
notes: From hSPLINT_09 selection
B4: anti-TrkA scFv CRB0036 (scFv)
scFv: DIVMTQAAPSVPVTPGESVSISCRSSKSLLHSSGITSLYWYLQRPGQSPQLPIYRMSSLASGVPDRFSVSGSGTAFTLRISRVEAEDVGVYYCMQHLEYPLTFGAGTKLELKRSGGSTSGSGKPGSGEGSSGTQVQLQQSGAELLKPGASVKISCKATGYTFSNYWIEWVKQRPGHGLEWIGEILPGSGSAHYSEKFKDKATFTADTSSNTAYMQLSSLTSEDSAVYFCTRSPPNPGYWGQGTSVTVSS
notes: From mSPLINT selection
B5: anti-TrkA scFv CRB0069 (scFv)
scFv: QPGLTQPPSASGTPGQRVTISCTGSSSNVGAGYTVHWYQQLPGTAPTLLIYDNNNRPSGVPDRFSGSRSGTSASLAITGLRAEDEADYYCQSYDRSRVYVFGTGTKLTVLSGGSTSGSGKPGSGEGSSGTQVQLQQSGPGLVKPSQTLSLTCAISGDSVSSNSAAWNWIRQSPSRGLERLGRTYYRSKWYNDYAESVKSRIIINSGTSKNQFSLHLNSVTPEDTAVYYCGRAKDGWYDAFDIWGQGTTVTVSS
notes: From hSPLINT_09 selection
B6: anti-TrkA scFv CRB0082 (scFv)
scFv: SYVLTQPPSVSVAPGTTARLSCEATKIGSQRLHWYQQKPGQAPVMVISFDSDRPSGIPDRFSGSRSGNTATLTISGVEAGDEADYYCNSRDSSGYHLVFGGGTKLTVLSGGSTSGSGKPGSGEGSSGTQVQLQQSGPGLVKPSQTLSLTCAISGDSVSSFTVAWNWIRQSPSRGLERLGRTYRRSKDYAEYMRSRLTINADTSKNQLSLQLDSVTPDDTAVYYCARGQNSAFDLWGQRTMVTVSS
notes: From hSPLINT_09 selection

What follows are binders tested against T1, human TrkA receptor (native, on TF-1 cells) (human, UniProt P04629 33-796) (assay: chip-based flow cytometry (Agilent Bioanalyzer 2100) on TF-1 cells expressing human TrkA; scFv at 5 µg/ml per paragraph 159).
T1 construct: also called TF1 expressing TrkA receptor; TF-1 cell line expressing human TrkA receptor
Protocol: FIG. 5. FACS analysis performed with Bioanalyzer 2100. A cell fluid chip-based fluorescent cytometric assay that runs on Bioanalyzer 2100 (Agilent) for fast characterization of small population cell phenotypes was assessed. The assay determines the expression of specific cell surface markers. In this experiment, the specificity of scFvs on TF-1 cell line expressing human TrkA receptor was assessed. Six samples can be analyzed on each chip in one automated process. Results were in good agreement with conventional flow cytometry in quantisation.
10⁶ cells/sample=tot: 6×10⁶ cells are first centrifuged at 350 g for 5 min at room temperature (RT) and wash with 12 ml of Staining Buffer (SB) at RT. The pellet was resuspended in 3 ml of SB at 4° C. and aliquot 0.5 ml of suspension in 1.5 ml conical tubes. Cells were centrifuged again at 350 g for 5 min at 4° C. and the pellet was resuspended in 1 ml HBSS at 4° C. 125 μl 16% p-formaldehyde (final conc 1.7%) was added into each tube and then the sample was incubated for 10 min at 4° C. on tube rotator. After 10 minutes, 75 μl of 10% detergent solution-Tween 20 (final conc 0.6%) was added and the samples were then incubated for 10 min at 4° C. on tube rotator. Samples were then washed once with FACS Buffer (0.8 ml/sample) at 4° C. and then centrifuged at 350 g for 5 min at 4° C. Cells were resuspended with 80 μl/sample of FACS Buffer. 20 μl of a 5× primary antibody solution were added (final concentration of scFvs is 5 μg/ml). After incubation for 1 hour at 4° C. on tube rotator samples were washed with FACS Buffer (0.5 ml/sample) at 4° C. and then centrifuged 5 min at 350 g at 4° C. Cells were resuspended with 80 μl/sample of FACS Buffer. 20 μl of a 5× secondary antibody solution were added. Final concentration of mouse anti-V5 antibody is 0.20 μg/ml. The samples were incubated for 1 hour at 4° C. on tube rotator. After incubation for 1 hour at 4° C. on tube rotator samples were washed with FACS Buffer (0.5 ml/sample) at 4° C. and then centrifuged 5 min at 350 g at 4° C. Cells were resuspended with 80 μl/sample of FACS Buffer. 20 μl of a 5× tertiary antibody solution were added. Final concentration of anti-mouse IgG-Cy5 is 4 μg/ml (1:250 diluted). The samples were incubated for 1 hour at 4° C. on tube rotator.

T1 sequence (P04629 33-796 limits assumed): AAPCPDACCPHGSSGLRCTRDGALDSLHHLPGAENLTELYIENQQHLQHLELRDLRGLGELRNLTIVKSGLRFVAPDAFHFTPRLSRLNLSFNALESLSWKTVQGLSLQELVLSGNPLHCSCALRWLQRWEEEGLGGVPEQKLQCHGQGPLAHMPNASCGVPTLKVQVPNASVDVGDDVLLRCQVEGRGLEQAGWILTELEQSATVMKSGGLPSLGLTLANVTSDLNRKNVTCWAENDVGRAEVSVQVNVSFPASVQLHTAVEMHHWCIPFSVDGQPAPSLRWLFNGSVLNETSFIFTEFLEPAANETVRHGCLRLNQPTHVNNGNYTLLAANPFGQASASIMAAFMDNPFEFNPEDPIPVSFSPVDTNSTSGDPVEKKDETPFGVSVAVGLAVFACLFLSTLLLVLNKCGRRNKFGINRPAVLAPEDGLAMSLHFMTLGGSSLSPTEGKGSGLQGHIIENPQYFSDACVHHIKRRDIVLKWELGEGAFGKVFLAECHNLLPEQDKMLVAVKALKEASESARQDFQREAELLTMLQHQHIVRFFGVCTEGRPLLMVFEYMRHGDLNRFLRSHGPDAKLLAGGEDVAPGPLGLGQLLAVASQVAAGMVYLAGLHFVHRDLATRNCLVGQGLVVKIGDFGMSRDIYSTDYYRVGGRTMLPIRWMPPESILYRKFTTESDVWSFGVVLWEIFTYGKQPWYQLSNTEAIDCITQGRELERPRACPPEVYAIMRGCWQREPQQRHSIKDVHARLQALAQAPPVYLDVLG

**Q.** Does B1 bind?
**A.** binds

**Q.** Does B2 bind?
**A.** binds

**Q.** Does B3 bind?
**A.** binds

**Q.** Does B4 bind?
**A.** binds

**Q.** Does B5 bind?
**A.** binds

Molecular target: T2, human Ig1,2 TrkA (recombinant D4-D5 domain of human TrkA receptor) (human, UniProt P04629 191-392)
T2 construct: also called hTrkA Ig1,2; TrkA Ig1,2
T2 chain: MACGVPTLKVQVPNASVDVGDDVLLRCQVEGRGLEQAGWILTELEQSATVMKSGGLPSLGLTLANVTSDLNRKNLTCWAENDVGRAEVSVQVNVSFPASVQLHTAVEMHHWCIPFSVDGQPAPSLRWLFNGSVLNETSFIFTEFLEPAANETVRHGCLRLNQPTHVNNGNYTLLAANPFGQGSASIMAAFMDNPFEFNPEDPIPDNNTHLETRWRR
Test: SPR (Biacore X-100); scFv immobilised on CM5 chip, human Ig1,2 TrkA injected
Protocol: (§1) The antibodies were also shown to be specific for hTrkA and mTrkA by relative binding to the BIACore sensor chips coated with the appropriate antigen. Antibodies were immobilized by ammine coupling to Biosensor CM5 sensorchips (Pharmacia) according to the manufacturers instructions. Anti-TrkA scFv proteins were diluted at 20-50 μg/ml in suitable pre-concentration buffer (at least 2 pH unit below the pI of the scFv in order to get a net positive charge), chosen among the Acetate buffers. The scFvs were immobilized at 100 RU to get a low density immobilization. As binder, the recombinant protein consisting of D4-D5 domain of human and murine TrkA receptor (hTrkA Ig1,2 and mTrkA Ig1,2 respectively) were injected over the immobilized scFv with a contact time of 60 seconds and with a dissociation time of 400 seconds and the assay workflow placed 5 serial dilutions of the TrkA Ig1,2 (starting in the micromolar range and diluting 1:2 each time). The regeneration condition were mild (contact time 30 seconds, 10 mM Glycine pH2). On the basis of the resulting sensorgrams, the concentrations of TrkA Ig1,2 were adjusted to optimize, contact time, dissociation time and regeneration. Data were analysed by Bioevaluation Software (see results on Table II and Table III). The quality of the data fitting were checked by the value of Chi² and of the U-value.
(§2) We have carried out surface plasmon resonance (SPR) analyses to determine the binding kinetics of a panel of isolated anti-TrkA scFvs (SEQ ID NOs: 1, 2, 3, 4, 5, 6, 7, 8, 9, 10, 11, 12, 13, 14, 15 and 16). The scFvs were immobilized on a CM5 chip followed by injections at various concentration of human and murine Ig 1,2 TrkA (SEQ ID NO: 78) and mouse Ig1,2 TrkA (SEQ ID NO: 79).

**Q.** B6 was tested. Which Kd did it give?
**A.** 42.1 nM

**Q.** What about the koff of the same binder?
**A.** 8.79e-05 s⁻¹

**Q.** What about the kon of the same binder?
**A.** 2090 M⁻¹ s⁻¹

**Q.** For B1, which Kd is on record?
**A.** 16.9 nM

**Q.** And the koff?
**A.** 7.76e-05 s⁻¹

**Q.** And the kon?
**A.** 4600 M⁻¹ s⁻¹

**Q.** Which Kd does the source give for B2 here?
**A.** 3.2 nM

**Q.** And the koff?
**A.** 2.94e-05 s⁻¹

**Q.** And the kon?
**A.** 9190 M⁻¹ s⁻¹

**Q.** Which results are given for B3?
**A.** Kd: 1700 nM; koff: 0.0163 s⁻¹; kon: 9600 M⁻¹ s⁻¹

**Q.** Which results are given for B4?
**A.** Kd: 13.7 nM; koff: 3.75e-05 s⁻¹; kon: 2730 M⁻¹ s⁻¹

**Q.** What does the source list for B5?
**A.** Kd: 5.7 nM; koff: 3.57e-05 s⁻¹; kon: 6270 M⁻¹ s⁻¹

These binders were tested against T3, human TrkB immunoadhesin (human; Camelus dromedarius, UniProt Q16620 32-430) (assay: specificity ELISA, antigens coated at 2 µg/mL, scFv at 50 ug/mL (upper panel) and 5 ug/mL (lower panel), OD 450 nm).
T3 construct: extracellular domain; also called hTrkB-Fc; TrkB immunoadhesins; not shown: Fc portion (immunoglobulin heavy chain constant region) of IgG2a camel antibody (Camelus dromedarius)
Protocol: (§3) FIG. 3. Specificity ELISA of isolated anti-TrkA scFvs versus human TrkA immunoadhesin (hTrkA-Fc), human TrkB immunoadhesins (hTrkB-Fc), human TrkC immunoadhesins (hTrkC-Fc) and human p75 immunoadhesins (hp75-Fc). Human antigens were coated at 2 μg/mL. Anti-TrkA scFvs were used at 50 μg/mL (upper panel) and/or 5 μg/mL (lower panel). The mean absorbance at 450 nm of the experiments performed in duplicate wells is shown with SD indicated by the bars.

T3 sequence (Q16620 32-430): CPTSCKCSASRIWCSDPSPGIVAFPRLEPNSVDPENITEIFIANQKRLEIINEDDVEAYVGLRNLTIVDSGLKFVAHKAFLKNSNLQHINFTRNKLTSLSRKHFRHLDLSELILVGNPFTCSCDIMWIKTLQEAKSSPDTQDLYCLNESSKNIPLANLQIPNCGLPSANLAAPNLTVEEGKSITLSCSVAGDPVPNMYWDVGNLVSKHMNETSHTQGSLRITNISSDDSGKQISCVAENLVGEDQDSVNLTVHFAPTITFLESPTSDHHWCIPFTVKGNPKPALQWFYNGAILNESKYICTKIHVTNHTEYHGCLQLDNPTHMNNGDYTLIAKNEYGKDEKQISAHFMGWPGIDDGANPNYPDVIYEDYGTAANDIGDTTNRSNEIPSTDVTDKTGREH

**Q.** Does B2 bind?
**A.** no binding (tested: 50 ug/mL)

**Q.** Does B3 bind?
**A.** no binding (tested: 50 ug/mL)

The binders below were run against T4, human TrkC immunoadhesin (human; Camelus dromedarius, UniProt Q16288 32-429) in the same assay as above.
T4 construct: extracellular domain; also called hTrkC-Fc; TrkC immunoadhesins; not shown: Fc portion (immunoglobulin heavy chain constant region) of IgG2a camel antibody (Camelus dromedarius)
Protocol: as §3

**Q.** Does B1 bind?
**A.** no binding (tested: 50 ug/mL)

**Q.** Does B2 bind?
**A.** no binding (tested: 50 ug/mL)

**Q.** Does B3 bind?
**A.** no binding (tested: 50 ug/mL)

The binders below were run against T5, human p75 immunoadhesin (human; Camelus dromedarius, UniProt P08138 29-250) in the same assay as above.
T5 construct: extracellular domain; also called hp75-Fc; p75NTR immunoadhesin; not shown: Fc portion (immunoglobulin heavy chain constant region) of IgG2a camel antibody (Camelus dromedarius)
T5 sequence (looked up): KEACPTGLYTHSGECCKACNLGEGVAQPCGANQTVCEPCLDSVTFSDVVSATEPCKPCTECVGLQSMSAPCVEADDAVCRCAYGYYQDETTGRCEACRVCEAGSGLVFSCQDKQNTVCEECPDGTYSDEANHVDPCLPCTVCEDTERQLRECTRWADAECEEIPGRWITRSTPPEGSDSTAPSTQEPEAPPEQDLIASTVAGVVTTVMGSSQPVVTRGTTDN
Protocol: as §3

**Q.** Does B1 bind?
**A.** no binding (tested: 50 ug/mL)

**Q.** Does B2 bind?
**A.** no binding (tested: 50 ug/mL)

**Q.** Does B4 bind?
**A.** no binding (tested: 50 ug/mL)

What follows are binders tested against T6, mouse Ig1,2 TrkA (recombinant D4-D5 domain of murine TrkA receptor) (mouse, UniProt Q3UFB7 193-413) (assay: SPR (Biacore X-100); scFv immobilised on CM5 chip, mouse Ig1,2 TrkA injected).
T6 construct: also called mTrkA Ig1,2
Protocol: as §1, §2

T6 sequence (Q3UFB7 other isoform, or with tags, fused parts or gaps limits assumed): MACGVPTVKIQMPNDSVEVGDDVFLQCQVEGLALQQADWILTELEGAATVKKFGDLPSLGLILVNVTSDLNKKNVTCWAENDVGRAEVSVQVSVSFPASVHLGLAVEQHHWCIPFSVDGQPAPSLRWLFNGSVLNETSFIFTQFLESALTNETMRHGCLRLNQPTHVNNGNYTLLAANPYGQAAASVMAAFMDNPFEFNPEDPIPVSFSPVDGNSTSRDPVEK

**Q.** Which results are given for B6?
**A.** Kd: 131 nM; koff: 0.000344 s⁻¹; kon: 2630 M⁻¹ s⁻¹

**Q.** Which Kd does the source give for B1 here?
**A.** 14.2 nM

**Q.** What about the koff of the same binder?
**A.** 3.19e-05 s⁻¹

**Q.** What about the kon of the same binder?
**A.** 2250 M⁻¹ s⁻¹

**Q.** With B2 as the binder, how does the Kd read?
**A.** 1.16 nM

**Q.** And the koff?
**A.** 1.09e-05 s⁻¹

**Q.** What about the kon of the same binder?
**A.** 9430 M⁻¹ s⁻¹

**Q.** Which Kd does the source give for B3 here?
**A.** 2.18 nM

**Q.** And the koff?
**A.** 2.33e-05 s⁻¹

**Q.** What about the kon of the same binder?
**A.** 10700 M⁻¹ s⁻¹

**Q.** How did the Kd turn out when B4 was run?
**A.** 1.1 nM

**Q.** What about the koff of the same binder?
**A.** 7.07e-06 s⁻¹

**Q.** And the kon?
**A.** 6440 M⁻¹ s⁻¹

**Q.** How did the Kd turn out when B5 was run?
**A.** 1.67 nM

**Q.** And the koff?
**A.** 1.02e-05 s⁻¹

**Q.** And the kon?
**A.** 6120 M⁻¹ s⁻¹
